Test results: publication PMC2756588

T1: Abp1, P15891
T1 sequence (P15891 535-592, looked up): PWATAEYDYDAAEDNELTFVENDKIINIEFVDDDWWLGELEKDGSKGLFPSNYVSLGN

T2: Bbc1, P47068
T2 sequence (P47068 1-78, looked up): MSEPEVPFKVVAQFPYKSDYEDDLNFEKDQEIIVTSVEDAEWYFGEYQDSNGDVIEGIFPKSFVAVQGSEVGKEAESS

T3: Boi1, P38041
T3 sequence (P38041 1-86, looked up): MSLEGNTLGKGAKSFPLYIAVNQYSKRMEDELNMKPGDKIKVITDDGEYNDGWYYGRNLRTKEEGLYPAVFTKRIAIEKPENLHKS

T4: Boi2, P39969
T4 sequence (P39969 32-116, looked up): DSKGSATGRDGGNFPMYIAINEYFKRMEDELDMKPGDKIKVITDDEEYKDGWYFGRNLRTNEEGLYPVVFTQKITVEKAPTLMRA

T5: Bud14, P27637
T5 sequence (P27637 247-328, looked up): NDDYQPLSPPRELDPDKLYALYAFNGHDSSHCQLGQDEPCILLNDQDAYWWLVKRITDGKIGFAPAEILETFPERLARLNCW

T6: Bzz1-1, P38822
T6 sequence (P38822 478-572, looked up): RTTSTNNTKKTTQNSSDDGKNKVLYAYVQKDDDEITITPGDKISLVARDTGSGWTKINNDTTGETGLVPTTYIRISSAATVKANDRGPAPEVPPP

T7: Bzz1-2, P38822
T7 sequence (P38822 568-633, looked up): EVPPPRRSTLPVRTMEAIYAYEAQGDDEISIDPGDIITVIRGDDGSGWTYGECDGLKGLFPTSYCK

T8: Cdc25, P04821
T8 sequence (P04821 50-136, looked up): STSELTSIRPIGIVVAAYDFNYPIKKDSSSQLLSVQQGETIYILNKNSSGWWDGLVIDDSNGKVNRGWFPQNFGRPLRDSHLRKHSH

T9: Cyk3, Q07533
T9 sequence (Q07533 1-83, looked up): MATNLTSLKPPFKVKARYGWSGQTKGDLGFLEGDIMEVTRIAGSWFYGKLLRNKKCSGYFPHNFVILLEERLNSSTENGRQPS

T10: Fus1, P11710
T10 sequence (P11710 432-512, looked up): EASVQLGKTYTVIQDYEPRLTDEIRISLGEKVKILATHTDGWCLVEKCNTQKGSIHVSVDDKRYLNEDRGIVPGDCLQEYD

T11: Hof1, Q05080
T11 sequence (Q05080 590-669, looked up): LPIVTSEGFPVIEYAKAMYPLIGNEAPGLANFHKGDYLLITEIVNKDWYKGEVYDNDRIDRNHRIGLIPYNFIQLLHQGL

T12: Hse1, P38753
T12 sequence (P38753 208-285, looked up): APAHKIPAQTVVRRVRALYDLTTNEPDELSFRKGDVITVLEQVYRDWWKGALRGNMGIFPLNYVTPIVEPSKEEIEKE

T13: Lsb1, P53281
T13 sequence (P53281 45-122, looked up): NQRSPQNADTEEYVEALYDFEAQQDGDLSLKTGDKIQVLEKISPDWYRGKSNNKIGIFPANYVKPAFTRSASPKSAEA

T14: Lsb3, P43603
T14 sequence (P43603 385-451, looked up): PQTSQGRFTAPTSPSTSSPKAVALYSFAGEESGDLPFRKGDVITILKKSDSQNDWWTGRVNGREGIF

T15: Lsb4, P32793
T15 sequence (P32793 402-468, looked up): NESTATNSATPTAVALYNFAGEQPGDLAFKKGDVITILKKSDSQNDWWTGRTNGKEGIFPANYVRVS

T16: Myo5, Q04439
T16 sequence (Q04439 1072-1160, looked up): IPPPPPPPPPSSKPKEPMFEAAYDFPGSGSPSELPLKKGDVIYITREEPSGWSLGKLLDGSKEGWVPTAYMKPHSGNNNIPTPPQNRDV

T17: Nbp2, Q12163
T17 sequence (Q12163 103-180, looked up): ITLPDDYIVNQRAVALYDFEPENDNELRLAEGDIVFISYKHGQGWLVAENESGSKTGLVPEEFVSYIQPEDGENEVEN

T18: Pex13, P80667
T18 sequence (P80667 295-386, looked up): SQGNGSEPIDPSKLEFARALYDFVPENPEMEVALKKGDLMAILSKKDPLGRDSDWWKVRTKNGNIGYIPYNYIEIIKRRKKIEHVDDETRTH

T19: Pin3, Q06449
T19 sequence (Q06449 53-122, looked up): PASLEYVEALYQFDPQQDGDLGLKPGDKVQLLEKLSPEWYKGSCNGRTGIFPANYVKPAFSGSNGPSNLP

T20: Sla1-2, P32790
T20 sequence (P32790 60-140, looked up): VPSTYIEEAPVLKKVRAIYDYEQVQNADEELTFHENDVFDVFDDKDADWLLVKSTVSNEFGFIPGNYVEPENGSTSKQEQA

T21: Sla1-3, P32790
T21 sequence (P32790 344-424, looked up): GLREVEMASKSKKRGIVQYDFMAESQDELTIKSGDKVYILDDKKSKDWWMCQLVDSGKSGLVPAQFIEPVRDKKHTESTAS


What follows are binders tested against T1, Abp1, P15891 (assay: SPOT array). Details: median of control spots 935.

SPOT intensity	Binder
0	RPVPPPPPMRTTTEG
93	NIKVLLNPKLGKPVK
0	VPVAPPPPPASLGQS

The binders below were run against T2, Bbc1, P47068 (assay: SPOT array). Details: median of control spots 796.

SPOT intensity	Binder
0	RPVPPPPPMRTTTEG
111	NIKVLLNPKLGKPVK
0	VPVAPPPPPASLGQS

These binders were tested against Bem1-1, P29366 (assay: SPOT array). Details: median of control spots 4282.
Bem1-1, P29366, sequence (P29366 55-141): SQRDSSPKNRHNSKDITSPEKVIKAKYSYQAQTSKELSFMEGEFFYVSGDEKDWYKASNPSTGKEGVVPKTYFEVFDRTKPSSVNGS

SPOT intensity	Binder
3	RPVPPPPPMRTTTEG
2	NIKVLLNPKLGKPVK
4	VPVAPPPPPASLGQS

The binders below were run against Bem1-2, P29366 (assay: SPOT array). Details: median of control spots 4347.
Bem1-2, P29366, sequence (P29366 139-227): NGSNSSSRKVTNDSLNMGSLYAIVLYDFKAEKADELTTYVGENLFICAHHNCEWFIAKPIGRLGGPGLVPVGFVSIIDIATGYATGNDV

SPOT intensity	Binder
6	RPVPPPPPMRTTTEG
3	NIKVLLNPKLGKPVK
1	VPVAPPPPPASLGQS

These binders were tested against T3, Boi1, P38041 (assay: SPOT array). Details: median of control spots 1162.

SPOT intensity	Binder
0	RPVPPPPPMRTTTEG
5	NIKVLLNPKLGKPVK
0	VPVAPPPPPASLGQS

What follows are binders tested against T4, Boi2, P39969 (assay: SPOT array). Details: median of control spots 1161.

SPOT intensity	Binder
0	RPVPPPPPMRTTTEG
0	NIKVLLNPKLGKPVK
0	VPVAPPPPPASLGQS

These binders were tested against T5, Bud14, P27637 (assay: SPOT array). Details: median of control spots 956.

SPOT intensity	Binder
0	RPVPPPPPMRTTTEG
27	NIKVLLNPKLGKPVK
0	VPVAPPPPPASLGQS

These binders were tested against T6, Bzz1-1, P38822 (assay: SPOT array). Details: median of control spots 4446.

SPOT intensity	Binder
19	RPVPPPPPMRTTTEG
2	NIKVLLNPKLGKPVK
8	VPVAPPPPPASLGQS

Each binder was assayed against T7, Bzz1-2, P38822 (assay: SPOT array). Details: median of control spots 4538.

SPOT intensity	Binder
664	RPVPPPPPMRTTTEG
6	NIKVLLNPKLGKPVK
0	VPVAPPPPPASLGQS

These binders were tested against T8, Cdc25, P04821 (assay: SPOT array). Details: median of control spots 969.

SPOT intensity	Binder
0	RPVPPPPPMRTTTEG
96	NIKVLLNPKLGKPVK
0	VPVAPPPPPASLGQS

These binders were tested against T9, Cyk3, Q07533 (assay: SPOT array). Details: median of control spots 1451.

SPOT intensity	Binder
0	RPVPPPPPMRTTTEG
5	NIKVLLNPKLGKPVK
0	VPVAPPPPPASLGQS

The binders below were run against T10, Fus1, P11710 (assay: SPOT array). Details: median of control spots 1200.

SPOT intensity	Binder
1	RPVPPPPPMRTTTEG
2	NIKVLLNPKLGKPVK
0	VPVAPPPPPASLGQS

What follows are binders tested against GST (assay: SPOT array). Details: median of control spots 978.

SPOT intensity	Binder
0	RPVPPPPPMRTTTEG
0	NIKVLLNPKLGKPVK
0	VPVAPPPPPASLGQS

The binders below were run against T11, Hof1, Q05080 (assay: SPOT array). Details: median of control spots 4086.

SPOT intensity	Binder
23	RPVPPPPPMRTTTEG
13	NIKVLLNPKLGKPVK
0	VPVAPPPPPASLGQS

What follows are binders tested against T12, Hse1, P38753 (assay: SPOT array). Details: median of control spots 1727.

SPOT intensity	Binder
9	RPVPPPPPMRTTTEG
20	NIKVLLNPKLGKPVK
0	VPVAPPPPPASLGQS

The binders below were run against T13, Lsb1, P53281 (assay: SPOT array). Details: median of control spots 388.

SPOT intensity	Binder
0	RPVPPPPPMRTTTEG
1	NIKVLLNPKLGKPVK
0	VPVAPPPPPASLGQS

The binders below were run against T14, Lsb3, P43603 (assay: SPOT array). Details: median of control spots 406.

SPOT intensity	Binder
0	RPVPPPPPMRTTTEG
0	NIKVLLNPKLGKPVK
0	VPVAPPPPPASLGQS

Each binder was assayed against T15, Lsb4, P32793 (assay: SPOT array). Details: median of control spots 397.

SPOT intensity	Binder
0	RPVPPPPPMRTTTEG
1	NIKVLLNPKLGKPVK
0	VPVAPPPPPASLGQS

Each binder was assayed against Myo3, P36006 (assay: SPOT array). Details: median of control spots 468.

SPOT intensity	Binder
0	RPVPPPPPMRTTTEG
6	NIKVLLNPKLGKPVK
0	VPVAPPPPPASLGQS

These binders were tested against T16, Myo5, Q04439 (assay: SPOT array). Details: median of control spots 471.

SPOT intensity	Binder
2	RPVPPPPPMRTTTEG
0	NIKVLLNPKLGKPVK
1	VPVAPPPPPASLGQS

These binders were tested against T17, Nbp2, Q12163 (assay: SPOT array). Details: median of control spots 357.

SPOT intensity	Binder
0	RPVPPPPPMRTTTEG
2	NIKVLLNPKLGKPVK
0	VPVAPPPPPASLGQS

What follows are binders tested against T18, Pex13, P80667 (assay: SPOT array). Details: median of control spots 1341.

SPOT intensity	Binder
185	RPVPPPPPMRTTTEG
6	NIKVLLNPKLGKPVK
0	VPVAPPPPPASLGQS

The binders below were run against T19, Pin3, Q06449 (assay: SPOT array). Details: median of control spots 2171.

SPOT intensity	Binder
59	RPVPPPPPMRTTTEG
2	NIKVLLNPKLGKPVK
0	VPVAPPPPPASLGQS

These binders were tested against Rvs167, P39743 (assay: SPOT array). Details: median of control spots 2707.
Rvs167, P39743, sequence (P39743 419-482): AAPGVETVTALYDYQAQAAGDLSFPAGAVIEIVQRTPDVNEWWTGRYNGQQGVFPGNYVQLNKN

SPOT intensity	Binder
7510	RPVPPPPPMRTTTEG
0	NIKVLLNPKLGKPVK
0	VPVAPPPPPASLGQS

Each binder was assayed against Sho1, P40073 (assay: SPOT array). Details: median of control spots 1148.
Sho1, P40073, sequence (P40073 287-367): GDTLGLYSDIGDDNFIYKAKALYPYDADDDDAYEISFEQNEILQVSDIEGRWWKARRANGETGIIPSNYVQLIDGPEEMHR

SPOT intensity	Binder
2	RPVPPPPPMRTTTEG
63	NIKVLLNPKLGKPVK
0	VPVAPPPPPASLGQS

The binders below were run against T20, Sla1-2, P32790 (assay: SPOT array). Details: median of control spots 712.

SPOT intensity	Binder
0	RPVPPPPPMRTTTEG
0	NIKVLLNPKLGKPVK
0	VPVAPPPPPASLGQS

These binders were tested against T21, Sla1-3, P32790 (assay: SPOT array). Details: median of control spots 5475.

SPOT intensity	Binder
2	RPVPPPPPMRTTTEG
8	NIKVLLNPKLGKPVK
0	VPVAPPPPPASLGQS
